B1: soluble high affinity c50 ILT-like polypeptide monomer, Q8NHL6 25-221 (receptor)
chain: MHLPKPTLWAEPGSVITMDQPVTLRCQGGQETQEYRLYREKKTAPWITRIPQELVKKGQFPIPSITWEHAGRYRCYYGSDTSQWSASSDPLELVVTGVYIKPTLSAQPSPVVNSGGNVTLQCDSQVAFDGFILCKEGEDEHPQCLNSQPHARGSSRAIFSVGPVSPSRRWWYRCYAYDSNSPYEWSLPSDLLELDVDG
B2: soluble high affinity c50 ILT-like polypeptide dimer, Q8NHL6 25-217 (receptor)
chain: MHLPKPTLWAEPGSVITMDQPVTLRCQGGQETQEYRLYREKKTAPWITRIPQELVKKGQFPIPSITWEHAGRYRCYYGSDTSQWSASSDPLELVVTGVYIKPTLSAQPSPVVNSGGNVTLQCDSQVAFDGFILCKEGEDEHPQCLNSQPHARGSSRAIFSVGPVSPSRRWWYRCYAYDSNSPYEWSLPSDLLELDVDGC
modifications: here or on the partner: additional C-terminal cysteine linked through maleimide to MAL-PEG-MAL, MW 3.4 KD
B3: soluble high affinity c50 ILT-like polypeptide tetramer, Q8NHL6 25-217 (receptor)
chain: MHLPKPTLWAEPGSVITMDQPVTLRCQGGQETQEYRLYREKKTAPWITRIPQELVKKGQFPIPSITWEHAGRYRCYYGSDTSQWSASSDPLELVVTGVYIKPTLSAQPSPVVNSGGNVTLQCDSQVAFDGFILCKEGEDEHPQCLNSQPHARGSSRAIFSVGPVSPSRRWWYRCYAYDSNSPYEWSLPSDLLELDVDGC
modifications: here or on the partner: additional C-terminal cysteine linked through maleimide to 4arm MAL-PEG, MW 20 KD

The test addresses Class I MHC. As to the kind of experiment: cell-based or functional assay.
Molecule B1 displayed an IC50 for the inhibition of CTLs (IFN-gamma ELISPOT, MART-1 specific T cell clone KA/C5 with Mel 624 / Mel 526 target cells) of 800 nM.

Molecule B2 returned an IC50 for the inhibition of CTLs (IFN-gamma ELISPOT, MART-1 specific T cell clone KA/C5 with Mel 624 / Mel 526 target cells) of 16.2 nM.

Take B3: the IC50 for the inhibition of CTLs (IFN-gamma ELISPOT, MART-1 specific T cell clone KA/C5 with Mel 624 / Mel 526 target cells) came out at 0.7 nM.

For the origin of these results see patent US20090208447A1.
